From patent US7544661 (NORTHWESTERN UNIVERSITY, dated 2009) come the findings set out here.

Ends that are not written are not given here. Asp(CONHC12) = Asp whose side chain is modified with dodecylamine

Test [1] concerns the target T1, recombinant human transforming growth factor β1 (human, UniProt P01137 279-390).
T1 construct: Bought growth factor (Peprotech), physisorbed on microtiter wells for panning and ELISA; also called rh-TGF-β1; TGF-β1
Nature of the test: phage ELISA on coated growth factor, anti-M13-HRP; grade of relative binding strength, 1 highest to 4 lowest. (In general: An ELISA detects its analyte on a solid surface through an enzyme-linked reagent.)

Test [2] concerns the target T2, recombinant human bone morphogenetic protein-2 (human, UniProt P12643 283-396).
T2 construct: Bought growth factor (Peprotech), physisorbed on microtiter wells for panning and ELISA; also called rh-BMP-2; BMP-2
Described as above.

For test [3], the target named is T2, recombinant human bone morphogenetic …. The test is described as follows: fluorescence depolarization.
The target is the same in test [4]. Nature of the test: cell-based or functional assay.

T1 sequence (P01137 279-390 limits assumed): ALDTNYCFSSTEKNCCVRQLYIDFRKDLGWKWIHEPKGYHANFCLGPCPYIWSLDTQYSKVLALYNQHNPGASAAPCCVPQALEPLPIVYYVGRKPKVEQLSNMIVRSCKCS
T2 sequence (P12643 283-396 limits assumed): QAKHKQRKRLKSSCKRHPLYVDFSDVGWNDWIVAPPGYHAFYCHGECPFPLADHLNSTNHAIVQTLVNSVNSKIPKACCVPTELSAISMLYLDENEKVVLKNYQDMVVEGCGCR

On to GKYPPTS (Tested as M13 phage clone), for which the binding result in test [1] is “binds”.

On to PGPTVQG (Tested as M13 phage clone), for which, in test [2], the binding result is given as “binds”.

With LPLGNSH (Tested as M13 phage clone), the binding result in test [1] is “binds”.

In the case of QQTQAQH (Tested as M13 phage clone), the binding result in test [2] is given as “binds”.

In the case of DVSPAYH (Tested as M13 phage clone), the binding result in test [2] is “binds”.

For AWKSVTA (Tested as M13 phage clone), in test [1], the binding result is “binds”.

Consider PAPRWIH (Tested as M13 phage clone), for which the binding result in test [1] was “binds”.

For the molecule LPSPIQK (Tested as M13 phage clone), the binding result in test [1] was “binds”.

With VYRHLPT (Tested as M13 phage clone), the binding result in test [1] is “binds”.

As for WPALFTH (Tested as M13 phage clone), the binding result in test [2] is on record as “binds”.

As to KVPPANT (Tested as M13 phage clone), the binding result in test [2] is “binds”.

For the molecule RTTSPTA (Tested as M13 phage clone), the binding result in test [1] is “binds”.

As for YPVHPST, in test [3], the Ka was 1.9e+06 M⁻¹.

Turning to PIQPDER (Tested as M13 phage clone), the binding result in test [2] was “binds”.

In the case of RVSTWDT (Tested as M13 phage clone), in test [1], the binding result is reported as “binds”.

B1: Asp(CONHC12)-Val-Val-Val-Val-Val-Val-Lys-Lys-Lys-Ser-Gly-Gly-Gly-Tyr-Pro-Val-His-Pro-Ser-Thr (9) (peptide)
peptide: {Asp(CONHC12)}-VVVVVVKKKSGGGYPVHPST
modifications: also: reverse polarity: Asp(CONHC12) built on Rink amide resin, end direction unclear
Consider B1, for which the “expression of osteocalcin in mesenchymal stem cells (western blot)” value in test [4] is 0.5 ratio (binding gels : no binding gels).

For the molecule PFDPPVR (Tested as M13 phage clone), in test [2], the binding result is on record as “binds”.

Regarding LRNYSHS (Tested as M13 phage clone), the binding result in test [1] is on record as “binds”.

For LHYPFMT (Tested as M13 phage clone), the binding result in test [2] is reported as “binds”.

As for KQALTQT, the Ka in test [3] turned out to be 210000 M⁻¹.
